± gives the uncertainty stated by the source.

The series is described as follows: abundance fitness (aPCA) (normalised: wild type 0, dead -1); higher = more abundant; growth selection in yeast, the domain comes from the species named. As to conditions: Homo sapiens.
“E3 ubiquitin-protein ligase NEDD4-like V203Q, Q96PU5” showed an abundance fitness of 0.019 ± 0.093.

For the substance “E3 ubiquitin-protein ligase NEDD4-like V203R, Q96PU5”, the abundance fitness is 0.007 ± 0.054.

In turn, “E3 ubiquitin-protein ligase NEDD4-like V203S, Q96PU5” came in with an abundance fitness of -0.144 ± 0.066.

In turn, “E3 ubiquitin-protein ligase NEDD4-like V203T, Q96PU5” displayed an abundance fitness of -0.115 ± 0.092.

“E3 ubiquitin-protein ligase NEDD4-like V203W, Q96PU5” yielded an abundance fitness of -0.347 ± 0.078.

The substance “E3 ubiquitin-protein ligase NEDD4-like V203Y, Q96PU5” registered an abundance fitness of -0.227 ± 0.11.

Take “E3 ubiquitin-protein ligase NEDD4-like V212A, Q96PU5”: the abundance fitness was -0.102 ± 0.069.

“E3 ubiquitin-protein ligase NEDD4-like V212C, Q96PU5” returned an abundance fitness of -0.097 ± 0.076.

In the case of “E3 ubiquitin-protein ligase NEDD4-like V212D, Q96PU5”, the abundance fitness is -0.458 ± 0.094.

Consider “E3 ubiquitin-protein ligase NEDD4-like V212E, Q96PU5”, for which the abundance fitness was -0.068 ± 0.057.

Substance “E3 ubiquitin-protein ligase NEDD4-like V212G, Q96PU5” had an abundance fitness of -0.417 ± 0.053.

Substance “E3 ubiquitin-protein ligase NEDD4-like V212H, Q96PU5” returned an abundance fitness of -0.207 ± 0.12.

“E3 ubiquitin-protein ligase NEDD4-like V212I, Q96PU5” showed an abundance fitness of -0.356 ± 0.12.

The substance “E3 ubiquitin-protein ligase NEDD4-like V212K, Q96PU5” had an abundance fitness of -0.974 ± 0.18.

In turn, “E3 ubiquitin-protein ligase NEDD4-like V212M, Q96PU5” displayed an abundance fitness of -0.076 ± 0.076.

The substance “E3 ubiquitin-protein ligase NEDD4-like V212N, Q96PU5” yielded an abundance fitness of -0.47 ± 0.15.

“E3 ubiquitin-protein ligase NEDD4-like V212P, Q96PU5” returned an abundance fitness of -0.485 ± 0.11.

As for “E3 ubiquitin-protein ligase NEDD4-like V212R, Q96PU5”, the abundance fitness was -0.196 ± 0.057.

Substance “E3 ubiquitin-protein ligase NEDD4-like V212S, Q96PU5” showed an abundance fitness of -0.347 ± 0.071.

“E3 ubiquitin-protein ligase NEDD4-like V212T, Q96PU5”: the abundance fitness is -0.225 ± 0.094.

Take “E3 ubiquitin-protein ligase NEDD4-like V212W, Q96PU5”: the abundance fitness was -0.183 ± 0.083.

The substance “E3 ubiquitin-protein ligase NEDD4-like V212Y, Q96PU5” displayed an abundance fitness of -0.003 ± 0.15.

The substance “E3 ubiquitin-protein ligase NEDD4-like V229A, Q96PU5” returned an abundance fitness of -0.001 ± 0.064.

On to “E3 ubiquitin-protein ligase NEDD4-like V229C, Q96PU5”, for which the abundance fitness was -0.203 ± 0.084.

“E3 ubiquitin-protein ligase NEDD4-like V229D, Q96PU5”: the abundance fitness stood at 0.019 ± 0.068.

Consider “E3 ubiquitin-protein ligase NEDD4-like V229E, Q96PU5”, for which the abundance fitness stood at 0.003 ± 0.077.

For the substance “E3 ubiquitin-protein ligase NEDD4-like V229F, Q96PU5”, the abundance fitness is -0.057 ± 0.099.

“E3 ubiquitin-protein ligase NEDD4-like V229G, Q96PU5” registered an abundance fitness of 0.036 ± 0.057.

Consider “E3 ubiquitin-protein ligase NEDD4-like V229H, Q96PU5”, for which the abundance fitness is -0.263 ± 0.1.

In turn, “E3 ubiquitin-protein ligase NEDD4-like V229I, Q96PU5” registered an abundance fitness of -0.013 ± 0.099.

For the substance “E3 ubiquitin-protein ligase NEDD4-like V229K, Q96PU5”, the abundance fitness was -0.111 ± 0.095.

Take “E3 ubiquitin-protein ligase NEDD4-like V229L, Q96PU5”: the abundance fitness worked out at 0.057 ± 0.056.

“E3 ubiquitin-protein ligase NEDD4-like V229N, Q96PU5” had an abundance fitness of -0.007 ± 0.11.

“E3 ubiquitin-protein ligase NEDD4-like V229Q, Q96PU5” came in with an abundance fitness of -0.133 ± 0.1.

Take “E3 ubiquitin-protein ligase NEDD4-like V229R, Q96PU5”: the abundance fitness was -0.016 ± 0.061.

Consider “E3 ubiquitin-protein ligase NEDD4-like V229S, Q96PU5”, for which the abundance fitness stood at 0.033 ± 0.067.

As to “E3 ubiquitin-protein ligase NEDD4-like V229T, Q96PU5”, the abundance fitness came to 0.018 ± 0.065.

On to “E3 ubiquitin-protein ligase NEDD4-like V229W, Q96PU5”, for which the abundance fitness was -0.164 ± 0.06.

Substance “E3 ubiquitin-protein ligase NEDD4-like W199A, Q96PU5” showed an abundance fitness of -0.535 ± 0.086.

“E3 ubiquitin-protein ligase NEDD4-like W199C, Q96PU5” yielded an abundance fitness of -0.25 ± 0.098.

In turn, “E3 ubiquitin-protein ligase NEDD4-like W199D, Q96PU5” gave an abundance fitness of -0.744 ± 0.1.

The substance “E3 ubiquitin-protein ligase NEDD4-like W199E, Q96PU5” gave an abundance fitness of -0.275 ± 0.083.

Substance “E3 ubiquitin-protein ligase NEDD4-like W199F, Q96PU5” showed an abundance fitness of 0.004 ± 0.079.

“E3 ubiquitin-protein ligase NEDD4-like W199G, Q96PU5”: the abundance fitness is -0.413 ± 0.063.

Take “E3 ubiquitin-protein ligase NEDD4-like W199I, Q96PU5”: the abundance fitness was -0.462 ± 0.13.

As to “E3 ubiquitin-protein ligase NEDD4-like W199L, Q96PU5”, the abundance fitness is -0.502 ± 0.058.

The substance “E3 ubiquitin-protein ligase NEDD4-like W199M, Q96PU5” yielded an abundance fitness of -0.514 ± 0.089.

“E3 ubiquitin-protein ligase NEDD4-like W199N, Q96PU5”: the abundance fitness was -0.853 ± 0.19.

As to “E3 ubiquitin-protein ligase NEDD4-like W199P, Q96PU5”, the abundance fitness was -1.03 ± 0.13.

Substance “E3 ubiquitin-protein ligase NEDD4-like W199Q, Q96PU5” registered an abundance fitness of -0.586 ± 0.098.

Take “E3 ubiquitin-protein ligase NEDD4-like W199R, Q96PU5”: the abundance fitness is -0.536 ± 0.065.

“E3 ubiquitin-protein ligase NEDD4-like W199S, Q96PU5” gave an abundance fitness of -0.454 ± 0.067.

For “E3 ubiquitin-protein ligase NEDD4-like W199T, Q96PU5”, the abundance fitness is -0.176 ± 0.09.

On to “E3 ubiquitin-protein ligase NEDD4-like W199V, Q96PU5”, for which the abundance fitness was -0.287 ± 0.07.

“E3 ubiquitin-protein ligase NEDD4-like W199Y, Q96PU5” displayed an abundance fitness of -0.403 ± 0.14.

In turn, “E3 ubiquitin-protein ligase NEDD4-like W221A, Q96PU5” had an abundance fitness of -0.035 ± 0.077.

For “E3 ubiquitin-protein ligase NEDD4-like W221C, Q96PU5”, the abundance fitness was -0.051 ± 0.079.

On to “E3 ubiquitin-protein ligase NEDD4-like W221D, Q96PU5”, for which the abundance fitness is -0.029 ± 0.1.

“E3 ubiquitin-protein ligase NEDD4-like W221E, Q96PU5” had an abundance fitness of -0.106 ± 0.085.

In turn, “E3 ubiquitin-protein ligase NEDD4-like W221F, Q96PU5” yielded an abundance fitness of -0.04 ± 0.084.

“E3 ubiquitin-protein ligase NEDD4-like W221G, Q96PU5” gave an abundance fitness of -0.219 ± 0.063.

Substance “E3 ubiquitin-protein ligase NEDD4-like W221H, Q96PU5” gave an abundance fitness of -0.243 ± 0.1.

On to “E3 ubiquitin-protein ligase NEDD4-like W221I, Q96PU5”, for which the abundance fitness is -0.192 ± 0.12.

In the case of “E3 ubiquitin-protein ligase NEDD4-like W221K, Q96PU5”, the abundance fitness is -0.044 ± 0.1.

Consider “E3 ubiquitin-protein ligase NEDD4-like W221L, Q96PU5”, for which the abundance fitness is -0.031 ± 0.054.

As to “E3 ubiquitin-protein ligase NEDD4-like W221N, Q96PU5”, the abundance fitness was -0.402 ± 0.11.

Consider “E3 ubiquitin-protein ligase NEDD4-like W221Q, Q96PU5”, for which the abundance fitness was 0.196 ± 0.1.

With “E3 ubiquitin-protein ligase NEDD4-like W221R, Q96PU5”, the abundance fitness is -0.052 ± 0.058.

Regarding “E3 ubiquitin-protein ligase NEDD4-like W221S, Q96PU5”, the abundance fitness stood at 0.124 ± 0.063.

“E3 ubiquitin-protein ligase NEDD4-like W221T, Q96PU5” registered an abundance fitness of -0.035 ± 0.063.

For “E3 ubiquitin-protein ligase NEDD4-like W221V, Q96PU5”, the abundance fitness is -0.123 ± 0.066.

Consider “E3 ubiquitin-protein ligase NEDD4-like W221Y, Q96PU5”, for which the abundance fitness worked out at 0.193 ± 0.12.

Turning to “E3 ubiquitin-protein ligase NEDD4-like Y210A, Q96PU5”, the abundance fitness was -0.379 ± 0.067.

“E3 ubiquitin-protein ligase NEDD4-like Y210C, Q96PU5” had an abundance fitness of -0.386 ± 0.1.

As to “E3 ubiquitin-protein ligase NEDD4-like Y210E, Q96PU5”, the abundance fitness is -0.516 ± 0.082.

For the substance “E3 ubiquitin-protein ligase NEDD4-like Y210F, Q96PU5”, the abundance fitness was -0.255 ± 0.1.

“E3 ubiquitin-protein ligase NEDD4-like Y210G, Q96PU5” registered an abundance fitness of -0.621 ± 0.057.

Take “E3 ubiquitin-protein ligase NEDD4-like Y210I, Q96PU5”: the abundance fitness is -0.379 ± 0.07.

As for “E3 ubiquitin-protein ligase NEDD4-like Y210K, Q96PU5”, the abundance fitness is -0.269 ± 0.069.

On to “E3 ubiquitin-protein ligase NEDD4-like Y210L, Q96PU5”, for which the abundance fitness was -0.261 ± 0.058.

Regarding “E3 ubiquitin-protein ligase NEDD4-like Y210M, Q96PU5”, the abundance fitness is -0.19 ± 0.084.

For “E3 ubiquitin-protein ligase NEDD4-like Y210N, Q96PU5”, the abundance fitness was -0.589 ± 0.095.

For “E3 ubiquitin-protein ligase NEDD4-like Y210P, Q96PU5”, the abundance fitness was -0.778 ± 0.1.

“E3 ubiquitin-protein ligase NEDD4-like Y210Q, Q96PU5”: the abundance fitness was -0.198 ± 0.069.
